According to US20240409645A1 (DUALYX, published 2024):

T1: human IL-2 receptor (IL-2Rα/IL-2Rβ/γc) (human, UniProt P01589 22-272; P14784 27-551; P31785 23-369)
T1 sequence 1: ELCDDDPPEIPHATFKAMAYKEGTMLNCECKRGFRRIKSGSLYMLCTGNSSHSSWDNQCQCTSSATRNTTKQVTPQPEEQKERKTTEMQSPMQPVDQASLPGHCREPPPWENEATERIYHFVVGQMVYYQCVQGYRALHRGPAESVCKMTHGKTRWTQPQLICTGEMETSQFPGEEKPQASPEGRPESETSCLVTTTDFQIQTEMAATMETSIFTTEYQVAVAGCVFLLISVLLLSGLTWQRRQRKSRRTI
T1 sequence 2: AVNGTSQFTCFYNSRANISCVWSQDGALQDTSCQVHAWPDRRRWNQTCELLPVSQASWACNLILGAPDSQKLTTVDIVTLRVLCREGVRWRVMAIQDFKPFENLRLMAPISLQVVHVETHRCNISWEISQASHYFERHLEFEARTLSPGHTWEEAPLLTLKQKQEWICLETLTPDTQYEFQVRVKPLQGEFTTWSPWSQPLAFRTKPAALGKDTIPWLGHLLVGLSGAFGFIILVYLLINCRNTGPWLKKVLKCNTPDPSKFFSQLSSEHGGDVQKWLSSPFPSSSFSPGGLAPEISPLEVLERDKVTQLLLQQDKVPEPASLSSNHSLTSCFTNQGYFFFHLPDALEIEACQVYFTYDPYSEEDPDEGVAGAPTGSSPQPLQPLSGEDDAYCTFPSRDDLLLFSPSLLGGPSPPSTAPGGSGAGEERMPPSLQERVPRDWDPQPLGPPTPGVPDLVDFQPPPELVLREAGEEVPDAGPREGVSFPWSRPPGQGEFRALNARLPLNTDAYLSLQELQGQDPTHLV
T1 sequence 3: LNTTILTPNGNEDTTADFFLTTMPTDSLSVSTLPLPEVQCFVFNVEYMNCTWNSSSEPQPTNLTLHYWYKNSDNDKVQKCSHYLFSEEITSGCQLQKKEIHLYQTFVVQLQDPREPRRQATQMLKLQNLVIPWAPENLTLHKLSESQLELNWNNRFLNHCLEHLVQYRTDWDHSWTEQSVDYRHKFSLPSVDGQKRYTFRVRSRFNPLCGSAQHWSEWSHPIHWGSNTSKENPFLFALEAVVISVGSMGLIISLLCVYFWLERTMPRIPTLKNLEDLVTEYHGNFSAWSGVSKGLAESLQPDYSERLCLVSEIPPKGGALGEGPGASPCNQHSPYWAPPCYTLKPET

B1: DC00040 (other)
chain 1: QVQLVESGGGLVQPGGSLRLSCATSGFTFRNNFMSWVRQAPGKGLEWVSTISYGGESTTYAESVKGRFTISRDNAKNTLYLQMNNLKPEDTAVYYCAKATSYDSIRSGSRGQGTQVTVSSDKTHTCPPCPAPEAAGGPSVFLFPPKPKDTLMISRTPEVTCVVVDVSHEDPEVKFNWYVDGVEVHNAKTKPREEQYNSTYRVVSVLTVLHQDWLNGKEYKCKVSNKALGAPIEKTISKAKGQPREPQVYTLPPSRDELTKNQVSLTCLVKGFYPSDIAVEWESNGQPENNYKTTPPVLDSDGSFLLYSKLTVDKSRWQQGNVFSCSVMHEALHNHYTQKSLSLSPGK
chain 2: EVQLVESGGGLVQTGGSLRLSCAASGGTFSRDAMAWFRQVPGKEREFVALISWSGATTNYADSVKGRFAISRDNGKNTVYLQMNRLKPADTAIYYCAADRRPMGSRSYFEPTEYDDWGQGTQVTVSSGGGGSGGGGSGGGGSQVQLVESGGGLVQAGGSLTLSCAAPGRTFGTDVVGWFRQAPGKEREFVASISRSGDGIYYDDSVKGRFTISRNNAWNTVNLQMNSLKVEDTAVYYCAAGDGWSTYDYWGQGTQVTVSSGGGGSGGGGSGGGGSDKTHTCPPCPAPEAAGGPSVFLFPPKPKDTLMISRTPEVTCVVVDVSHEDPEVKFNWYVDGVEVHNAKTKPREEQYNSTYRVVSVLTVLHQDWLNGKEYKCKVSNKALGAPIEKTISKAKGQPREPQVYTLPPSRDELTKNQVSLTCLVKGFYPSDIAVEWESNGQPENNYKTTPPVLDSDGSFFLYSRLTVDKSRWQQGNVFSCSVMHEALHNHYTQKSLSLSPGK
B2: DC00041 (other)
chain 1: QVQLVESGGGLVQPGGSLRLSCATSGFTFRNNFMSWVRQAPGKGLEWVSTISYGGESTTYAESVKGRFTISRDNAKNTLYLQMNNLKPEDTAVYYCAKATSYDSIRSGSRGQGTQVTVSSDKTHTCPPCPAPEAAGGPSVFLFPPKPKDTLMISRTPEVTCVVVDVSHEDPEVKFNWYVDGVEVHNAKTKPREEQYNSTYRVVSVLTVLHQDWLNGKEYKCKVSNKALGAPIEKTISKAKGQPREPQVYTLPPSRDELTKNQVSLTCLVKGFYPSDIAVEWESNGQPENNYKTTPPVLDSDGSFLLYSKLTVDKSRWQQGNVFSCSVMHEALHNHYTQKSLSLSPGK
chain 2: QVQLVESGGGLVQPGGSLRLSCATSGFTFRNNFMSWVRQAPGKGLEWVSTISYGGESTTYAESVKGRFTISRDNAKNTLYLQMNNLKPEDTAVYYCAKATSYDSIRSGSRGQGTQVTVSSGGGGSGGGGSGGGGSQVQLVESGGGLVQAGGSLTLSCAAPGRTFGTDVVGWFRQAPGKEREFVASISRSGDGIYYDDSVKGRFTISRNNAWNTVNLQMNSLKVEDTAVYYCAAGDGWSTYDYWGQGTQVTVSSGGGGSGGGGSGGGGSEVQLVESGGGLVQTGGSLRLSCAASGGTFSRDAMAWFRQVPGKEREFVALISWSGATTNYADSVKGRFAISRDNGKNTVYLQMNRLKPADTAIYYCAADRRPMGSRSYFEPTEYDDWGQGTQVTVSSGGGGSGGGGSGGGGSDKTHTCPPCPAPEAAGGPSVFLFPPKPKDTLMISRTPEVTCVVVDVSHEDPEVKFNWYVDGVEVHNAKTKPREEQYNSTYRVVSVLTVLHQDWLNGKEYKCKVSNKALGAPIEKTISKAKGQPREPQVYTLPPSRDELTKNQVSLTCLVKGFYPSDIAVEWESNGQPENNYKTTPPVLDSDGSFFLYSRLTVDKSRWQQGNVFSCSVMHEALHNHYTQKSLSLSPGK
B3: DC00042 (other)
chain 1: QVQLVESGGGLVQPGGSLRLSCATSGFTFRNNFMSWVRQAPGKGLEWVSTISYGGESTTYAESVKGRFTISRDNAKNTLYLQMNNLKPEDTAVYYCAKATSYDSIRSGSRGQGTQVTVSSDKTHTCPPCPAPEAAGGPSVFLFPPKPKDTLMISRTPEVTCVVVDVSHEDPEVKFNWYVDGVEVHNAKTKPREEQYNSTYRVVSVLTVLHQDWLNGKEYKCKVSNKALGAPIEKTISKAKGQPREPQVYTLPPSRDELTKNQVSLTCLVKGFYPSDIAVEWESNGQPENNYKTTPPVLDSDGSFLLYSKLTVDKSRWQQGNVFSCSVMHEALHNHYTQKSLSLSPGK
chain 2: QVQLVESGGGLVQAGGSLTLSCAAPGRTFGTDVVGWFRQAPGKEREFVASISRSGDGIYYDDSVKGRFTISRNNAWNTVNLQMNSLKVEDTAVYYCAAGDGWSTYDYWGQGTQVTVSSGGGGSGGGGSGGGGSEVQLVESGGGLVQTGGSLRLSCAASGGTFSRDAMAWFRQVPGKEREFVALISWSGATTNYADSVKGRFAISRDNGKNTVYLQMNRLKPADTAIYYCAADRRPMGSRSYFEPTEYDDWGQGTQVTVSSGGGGSGGGGSGGGGSDKTHTCPPCPAPEAAGGPSVFLFPPKPKDTLMISRTPEVTCVVVDVSHEDPEVKFNWYVDGVEVHNAKTKPREEQYNSTYRVVSVLTVLHQDWLNGKEYKCKVSNKALGAPIEKTISKAKGQPREPQVYTLPPSRDELTKNQVSLTCLVKGFYPSDIAVEWESNGQPENNYKTTPPVLDSDGSFFLYSRLTVDKSRWQQGNVFSCSVMHEALHNHYTQKSLSLSPGK
B4: DC00043 (other)
chain 1: QVQLVESGGGLVQPGGSLRLSCATSGFTFRNNFMSWVRQAPGKGLEWVSTISYGGESTTYAESVKGRFTISRDNAKNTLYLQMNNLKPEDTAVYYCAKATSYDSIRSGSRGQGTQVTVSSDKTHTCPPCPAPEAAGGPSVFLFPPKPKDTLMISRTPEVTCVVVDVSHEDPEVKFNWYVDGVEVHNAKTKPREEQYNSTYRVVSVLTVLHQDWLNGKEYKCKVSNKALGAPIEKTISKAKGQPREPQVYTLPPSRDELTKNQVSLTCLVKGFYPSDIAVEWESNGQPENNYKTTPPVLDSDGSFLLYSKLTVDKSRWQQGNVFSCSVMHEALHNHYTQKSLSLSPGK
chain 2: QVQLVESGGGLVQPGGSLRLSCATSGFTFRNNFMSWVRQAPGKGLEWVSTISYGGESTTYAESVKGRFTISRDNAKNTLYLQMNNLKPEDTAVYYCAKATSYDSIRSGSRGQGTQVTVSSGGGGSGGGGSGGGGSEVQLVESGGGLVQTGGSLRLSCAASGGTFSRDAMAWFRQVPGKEREFVALISWSGATTNYADSVKGRFAISRDNGKNTVYLQMNRLKPADTAIYYCAADRRPMGSRSYFEPTEYDDWGQGTQVTVSSGGGGSGGGGSGGGGSQVQLVESGGGLVQAGGSLTLSCAAPGRTFGTDVVGWFRQAPGKEREFVASISRSGDGIYYDDSVKGRFTISRNNAWNTVNLQMNSLKVEDTAVYYCAAGDGWSTYDYWGQGTQVTVSSGGGGSGGGGSGGGGSDKTHTCPPCPAPEAAGGPSVFLFPPKPKDTLMISRTPEVTCVVVDVSHEDPEVKFNWYVDGVEVHNAKTKPREEQYNSTYRVVSVLTVLHQDWLNGKEYKCKVSNKALGAPIEKTISKAKGQPREPQVYTLPPSRDELTKNQVSLTCLVKGFYPSDIAVEWESNGQPENNYKTTPPVLDSDGSFFLYSRLTVDKSRWQQGNVFSCSVMHEALHNHYTQKSLSLSPGK
B5: DC00044 (other)
chain 1: QVQLVESGGGLVQPGGSLRLSCATSGFTFRNNFMSWVRQAPGKGLEWVSTISYGGESTTYAESVKGRFTISRDNAKNTLYLQMNNLKPEDTAVYYCAKATSYDSIRSGSRGQGTQVTVSSDKTHTCPPCPAPEAAGGPSVFLFPPKPKDTLMISRTPEVTCVVVDVSHEDPEVKFNWYVDGVEVHNAKTKPREEQYNSTYRVVSVLTVLHQDWLNGKEYKCKVSNKALGAPIEKTISKAKGQPREPQVYTLPPSRDELTKNQVSLTCLVKGFYPSDIAVEWESNGQPENNYKTTPPVLDSDGSFLLYSKLTVDKSRWQQGNVFSCSVMHEALHNHYTQKSLSLSPGK
chain 2: QVQLVESGGGLVQAGGSLTLSCAAPGRTFGTDVVGWFRQAPGKEREFVASISRSGDGIYYDDSVKGRFTISRNNAWNTVNLQMNSLKVEDTAVYYCAAGDGWSTYDYWGQGTQVTVSSGGGGSGGGGSGGGGSEVQLVESGGGLVQTGGSLRLSCAASGGTFSRDAMAWFRQVPGKEREFVALISWSGATTNYADSVKGRFAISRDNGKNTVYLQMNRLKPADTAIYYCAADRRPMGSRSYFEPTEYDDWGQGTQVTVSSGGGGSGGGGSGGGGSQVQLVESGGGLVQPGGSLRLSCATSGFTFRNNFMSWVRQAPGKGLEWVSTISYGGESTTYAESVKGRFTISRDNAKNTLYLQMNNLKPEDTAVYYCAKATSYDSIRSGSRGQGTQVTVSSDKTHTCPPCPAPEAAGGPSVFLFPPKPKDTLMISRTPEVTCVVVDVSHEDPEVKFNWYVDGVEVHNAKTKPREEQYNSTYRVVSVLTVLHQDWLNGKEYKCKVSNKALGAPIEKTISKAKGQPREPQVYTLPPSRDELTKNQVSLTCLVKGFYPSDIAVEWESNGQPENNYKTTPPVLDSDGSFFLYSRLTVDKSRWQQGNVFSCSVMHEALHNHYTQKSLSLSPGK

Molecular target: T1, human IL-2 receptor (IL-2Rα/IL-2Rβ/γc)
Experiment: cell-based or functional assay

Going from B1 to B2, the “EC50 (nM) pSTAT5, NK, human PBMCs” value falls from 0.701 nM to 0.15 nM.

First: B3
Second: B4
The “EC50 (nM) pSTAT5, NK, human PBMCs” value of the first is higher: 0.763 nM for the first, 0.0425 nM for the second.

B5 was tested, and the “EC50 (nM) pSTAT5, NK, human PBMCs” value was 0.442 nM.

First: B1
Second: B2
The “EC50 (nM) pSTAT5, Treg, human PBMCs” value of the first is higher: 0.0158 nM for the first, under 0.1 pM for the second.

First: B3
Second: B4
The “EC50 (nM) pSTAT5, Treg, human PBMCs” value of the first is lower: 0.106 pM for the first, 0.529 pM for the second.

B5 was tested, and the “EC50 (nM) pSTAT5, Treg, human PBMCs” value was under 0.1 pM.

First: B1
Second: B2
The “Fold Max signal (% pSTAT5+) Treg/NK” value of the first is higher: 10 fold for the first, 5 fold for the second.

Going from B3 to B4, the “Fold Max signal (% pSTAT5+) Treg/NK” value rises from 5 fold to 16 fold.

For B5, the “Fold Max signal (% pSTAT5+) Treg/NK” value was 5 fold.

First: B1
Second: B2
The “Max signal (% pSTAT5+), NK” value of the first is lower: 4 % pSTAT5+ for the first, 17 % pSTAT5+ for the second.

Going from B3 to B4, the “Max signal (% pSTAT5+), NK” value falls from 21 % pSTAT5+ to 3 % pSTAT5+.

B5 was tested, and the “Max signal (% pSTAT5+), NK” value was 20 % pSTAT5+.

Going from B1 to B2, the “Max signal (% pSTAT5+), Treg” value rises from 43 % pSTAT5+ to 94 % pSTAT5+.

Going from B3 to B4, the “Max signal (% pSTAT5+), Treg” value falls from 94 % pSTAT5+ to 54 % pSTAT5+.

In the case of B5, the “Max signal (% pSTAT5+), Treg” value is reported as 96 % pSTAT5+.

Going from B1 to B2, the “fold EC50 NK/Treg” value rises from 44 fold to over 1500 fold.

First: B3
Second: B4
The “fold EC50 NK/Treg” value of the first is higher: 7210 fold for the first, 80 fold for the second.

For B5, the “fold EC50 NK/Treg” value was over 4420 fold.
